Data on 41 sequences can be found in the nanobody polyreactivity screen of Harvey et al. (2022).

This series can be described thus: yeast display, Sf9 membrane polyspecificity reagent, FACS + sequencing; frameworks hold sequencing errors. Summed up:
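After 36–48 hours of galactose induction, yeast (Saccharomyces cerevisiae BJ5465) displaying a synthetic nanobody library were stained at 4 °C for 1 hour with 10% biotinylated, detergent-solubilized Sf9 membrane reagent. Streptavidin microbeads enriched the stained cells before FACS sorting into low and high (top ~1%) gates on anti-HA and streptavidin fluorescence. Each clone's polyreactivity label reflects its gate of origin.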
On to “QVQLVESGGGLVQAGGSLRLRCAASGSIFPWYAMGWYRQAPGKERELVAAITISGGSTHYADSVKGRFTISRDNAKNTVYLQMNCLKPEDTAVYYCATPRYPSYDYWGQGTQVTVSS”, for which the “polyreactivity (PSR sort gate)” value is “low polyreactivity”.
With “QVQLVESGGGLVQAGGSLRLRCAASGSNFNPYAMGWYRQAPGKERELVAAINSRGGSTYYADSVKGRFTISRDNANNTVYLQMNSLKPQDTAVYYCAARTRRRTSAYEYWGQGTQVTVSS” the entry was “high polyreactivity”.
Next, “QVQLVESGGGLVQAGGSLRLRCAASGSTFHIYAMGWYRQAPGKERELVAAISKGGGNTYYADSVKGRFTISRDNAKNPVYLQLNSLKPEDTAGYYCAAVPTRYRSYSYTYGGYNYWGQGTQVTVSS”: “high polyreactivity”; “QVQLVESGGGLVQAGGSLRLRCAASGSTFRNAMGWYRQAPGKERELVAAISYSGGRTYYADSVKGRFTISRDNAKNTVYLQMNSLKPEDTAVYYCASPGVSWSTRSYYYWGQGTQVTVSS”: “high polyreactivity”; “QVQLVESGGGLVQAGGSLRLRCAASGSTFSIYAMGWYRQATGKQRELVAAISSSGGSTYYADSVKGRFTISRDTAKNTGYLQMNSLKPEDTAFYYCNKRKYHVRYDYWGQGTQVTVSS”: “low polyreactivity”.
As to “QVQLVESGGGLVQAGGSLRLRCAASGSTSPNAMGWYRQAPGKERELVAAIWSGGTYYADSVKGRFTISRDNAKNTVYLQMNSLKPEDTAVYYCAVTGVYRGFRYGYWGQGTQVTVSS”, the “polyreactivity (PSR sort gate)” value is reported as “low polyreactivity”.
Consider “QVQLVESGGGLVQAGGSLRLRCAASGTTFRLYAMGWYRQAPGKERELVAAISWIGGRTYYADSVKGRFTISRDNAKNTVYLQMNSLKPEDTAVYYCAATCAYRVARGYDYWGQGTQVTVSS”, for which the “polyreactivity (PSR sort gate)” value is “high polyreactivity”.
Next, “QVQLVESGGGLVQAGGSLRLRCAATGRTFGWYAMGWYRQAPGKEREFVATITRSGGRTYYADSVKGRFTISRDNAKNTVYFQMNSLKPEDTAVYYCAADTNRYRYSYDYWGQGTQVTVSS”: “high polyreactivity”; “QVQLVESGGGLVQAGGSLRLRCAAYGSIFDKNSMGWYRQAPGKERELVAAITRSGRSTYYADSVKGRFTISRDNAKNTVYLQMNSLKPEDTALYYCAADVWPRWGLYYWGQGTQVTVTS”: “high polyreactivity”; “QVQLVESGGGLVQAGGSLRLRCASSGITFTLNAMGWYRQAPGKERELVAAISGSGGRTYYADSVKGRFTISRDNAKNTVYLQMNSLKPEDTAVYYCAAAVLDRYTRYIWYIYDYWGQGTQVTVSS”: “high polyreactivity”.
Next, “QVQLVESGGGLVQAGGSLRLRCASSGRIFFGYAMGWYRQAPGKERELVASISRGGSTNYADSVKGRFTISRDNAKNTVYLQMHSLKPEDTAVYYCAASRYLQRYGMYYWGQGTQVTVSS”: “high polyreactivity”; “QVQLVESGGGLVQAGGSLRLRCASSGRTFQYYAMGWYRQAPGKEMELVAAISWSGGSTYYADSVKGRFTISRDNAKNTVYLQMNSLKPEDTAVYYCAAVVGRNGTRSYGYWGQGTQVTVSS”: “high polyreactivity”; “QVQLVESGGGLVQAGGSLRLRCGASGSTFGIYAMGWYRQAPGKERELVAAITLRTDSTYYADSVKGRFTISRDNAKNTVYLQMNSLKPEDTAVYYCARRYRYGYDYWGQGTQVSVSS”: “low polyreactivity”.
With “QVQLVESGGGLVQAGGSLRLRCPASGRIIGSYTMGSYRQAPGKERELVAAISFSGARTRYADSVKGRFTISRDNAKNTVYFQMNSLKAEDTAVYYCAARFTGGKYDYWGLGTQVTVSS” the entry was “high polyreactivity”.
As for “QVQLVESGGGLVQAGGSLRLRGAASGSTFGPNAMGWYRPAPGKEREFVASISWRGGRTYYADSVKGRFTISRDNAKNTVYLQMNSLNPEDTAVYYCAAVSYPAVYGFDYWGQGTQVTVSS”, the “polyreactivity (PSR sort gate)” value is “high polyreactivity”.
With “QVQLVESGGGLVQAGGSLRLRSAASGSIIPEYVMGWYRQAPGKERELVAAISWSGGSTYYADSVKGRFTISRDNAKNTDYLQMNSLKPEDTAVYYCNRVPSWRIDYDYWGQGTQVTVSS” the entry was “low polyreactivity”; with “QVQLVESGGGLVQAGGSLRLSCAAAGFIFRYYAMGWYRPAPGKVRELVAAITNSGVSTYYADSVKGRFTISRDNAKNTVYLQMNRLKPEDTAVYYCAATYRTRTSQYDYWGQGTQVTVSS”, “high polyreactivity”; with “QVQLVESGGGLVQAGGSLRLSCAAAGITFTVYAMGWYRPAPGKERELVAAISQSGGSTYYADSVKGRFTISRDNAKNTVSLQMNSMKPEDTAVYSCNADTVWVPYRTYIPFDYWGQGTQVTVSS”, “low polyreactivity”.
With “QVQLVESGGGLVQAGGSLRLSCAAAGRIFGINALGWYRQAPGKERELVAAISWRSGSTYYADSVKGRFTISRDNAKNTVYLQMNSLKPEATAVYYCAARYFVRNYYQNDYWGQGTQVTVSS” the entry was “low polyreactivity”; with “QVQLVESGGGLVQAGGSLRLSCAAAGRSFGRNAMGWYRQAPGKERELVAAISTSSGSTYYADSVKGRFTISRDNAKNTVYLQMNSLKPEDTAGYYCAARDDSYRRYEYGYWGQGTQVTVSS”, “high polyreactivity”; with “QVQLVESGGGLVQAGGSLRLSCAAAGRTFGDYDMGWYRQAPGKERELVAAITSDGTTYYADYVKGRFTISGDNAKNTVYLQMNSLKPEDTAVYYCAADYWYVSWYDYWGHGTQVTVSS”, “low polyreactivity”.
With “QVQLVESGGGLVQAGGSLRLSCAAAGSIFRINDMGWYRQATGKERELVAAITFSGGSTYADSVKGRFTISRDNAKNTVYLQMNSLKPEDTAVYYCNADGAYWTDYYLYDYWGHGTQVTVSS” the entry was “low polyreactivity”.
Take “QVQLVESGGGLVQAGGSLRLSCAACGFIFYYNAMGWYRQAHGKVRELVAAISSSAGSTYYADSVKGRFTISRDNAKNTVYLQMNSLKPEDTAVYDCAASRPPNTSNTGYGSWGQGTQVTVSS”: the “polyreactivity (PSR sort gate)” value is reported as “low polyreactivity”.
Next, “QVQLVESGGGLVQAGGSLRLSCAACGFTFQYYAMGWYRQAPGKVRELVATITTSGGNTYYADSVKGRFTISRDNAKNTVYLQMNSLKPEDTAVYYCAARSYRASSRGYVYWGQGTQVTVSS”: “high polyreactivity”; “QVQLVESGGGLVQAGGSLRLSCAACGITFPTNMGWYRQAPGKERELVAAIRLSGGSTSYADSVKGRFTISRDNAKNSVYLQMTSLKPEDTAVSSCAAGGYPGGEDYWGQGTQVTVSS”: “low polyreactivity”; “QVQLVESGGGLVQAGGSLRLSCAACGLTITFYAMGWYRQAPGKERELVAAISRSGGSTYYADSVKGRFTISRDNAKNTVYLQMNSLKPEVTAVYYCAVVGGYYEFDYEGDYWGQGTQVTVSS”: “low polyreactivity”.
With “QVQLVESGGGLVQAGGSLRLSCAACGRIFDRNAMGWYRQAPGKERELVAAITRSGGRTYYADSVKGRFTISRDNAKNSVYLQMNSLKPEDTAVYYCNRGYPRSVVHYNSWGQGTQVTVSS” the entry was “low polyreactivity”; with “QVQLVESGGGLVQAGGSLRLSCAACGRILTYYAMGWYRQAPGKERELVAAISWRAGSTYYADSVKGRFTISRDNAKNTVYLQMNSLKPEDTAVYYCAAKPYYIPTRTYSHYNYWGQGTQVTVSS”, “high polyreactivity”; with “QVQLVESGGGLVQAGGSLRLSCAACGRTFYNYAMGWYRQAPGKERELVAAITRGGSTYYADSVKGRFTISRDNAKNTVYLQMNSLKPEDTAVYYCNAVFPYEHEEYDYWGQGTQVTVSS”, “high polyreactivity”.
With “QVQLVESGGGLVQAGGSLRLSCAACGSIFYLNAMGWYRQAPGKERELVAAITNGGSTYADSVKGRFTISRDNAKNTVYLQMNSLKPEDTAVYYCATRSWELGDYWGQGTQVTVSS” the entry was “low polyreactivity”.
For the sequence “QVQLVESGGGLVQAGGSLRLSCAACGSTFHWNTMVWYRQAPGKERELVAAITYSGGRTYYADSVKGRFTISRDNAKNTVYLQMNSLKPEDTAVYYCAARYWRGSVTSYYYWGQGTQVTVSS”, the “polyreactivity (PSR sort gate)” value was “high polyreactivity”.
Regarding “QVQLVESGGGLVQAGGSLRLSCAACGSTFNGYTMGWYRQAPGKERELVAAISKSGGRTYYADSVKGRFTISRDNAKNTVYLQMNSLKPEDTAVYYCNKLTQSSYGWGQGTQVTVSS”, the “polyreactivity (PSR sort gate)” value is reported as “high polyreactivity”.
Next, “QVQLVESGGGLVQAGGSLRLSCAACGSTFPGNAKGWYRQAPGKERELVAAISSSGGITYYADSVKGRFTISRDNAKNTVYLQMNSLIPEDTAVYYCSWGHGTQVTVSS”: “low polyreactivity”; “QVQLVESGGGLVQAGGSLRLSCAACGSTFRYNTMGWYRQATGTEREVVAAISSAATTNYADSVKGRFTISRDNAKNTVYLQLNSLNPEDTALYYCARGYSWSVGYPRVQDMDYWGQGTQVTVSS”: “high polyreactivity”.
Next, “QVQLVESGGGLVQAGGSLRLSCAAFGRIFQYYAMGWYRQAPGKERELVAAITRSGGSTYYADSVKGRFTISRDNAKNTVYLQMNSLKPEDTAVYYCAAYSRYTVREGYDYWGQGTQVTVSS”: “high polyreactivity”; “QVQLVESGGGLVQAGGSLRLSCAAPGNTFQYYAMGWSRQAPGKEREFVAAISRRGGSTYYADSVKGRFTISRDNAKNTVYLQMNSLKPEDTAVYYCNKVIFLSQSSYSFLYAYDYWGQGTQVTVSS”: “high polyreactivity”; “QVQLVESGGGLVQAGGSLRLSCAAPGSIFYQNAMGGYRQAPGKERELVAAISRSGGSTYYADSVKGRFTISRDNAKNTVYLQMNSLKPEDTAVYYCAARISRQRSYSRDYWGQGTQVTVSS”: “high polyreactivity”.
In the case of “QVQLVESGGGLVQAGGSLRLSCAASAAIFTKNAMGWYRQAPAKERELVAAITGSGASTYYADSVKGRFTISRDNAKNTVYLQMNSLKPEDTAVYYCNTDSPYGWEGEFDYWGQGTQVTVSS”, the “polyreactivity (PSR sort gate)” value is listed as “high polyreactivity”.
With “QVQLVESGGGLVQAGGSLRLSCAASAFIFGHYAMGWYRQAPGKERELVAGINSSGGSTHYADSVKGRFTISRDNAKKTVYLQMNSLKPEDTAVYYCAVAARTRARVLYGYDYWGQGTQVTVSS” the entry was “low polyreactivity”.
With “QVQLVESGGGLVQAGGSLRLSCAASAFIFSRNAMGWYRQAPGKDRELVAAISLRGGSTSYADSVKGRFTISRDTAKNTVYIQMNSLKPEDTAVYYCAKYDRNTYGYWGQGTEVTVSS”, the “polyreactivity (PSR sort gate)” value is “low polyreactivity”.
Next, “QVQLVESGGGLVQAGGSLRLSCAASAFIIHRYAMGWYRQAPGKERELVAVITSGGGSTYYADSVKGRFTISRDNAKNTVYLQMNCLKAEDTAVYYCAAFQPDNSRYRYDYWGQGTQVTVSS”: “high polyreactivity”.
